Molecular target: T1, CD3 epsilon homodimer protein (UniProt P07766 23-126)
T1 construct: also called CD3 (CD3 epsilon)
Assay: SPR Biacore T200, CD3e homodimer on chip, vs unaltered GLS3000 antibody

T1 sequence (P07766 23-126): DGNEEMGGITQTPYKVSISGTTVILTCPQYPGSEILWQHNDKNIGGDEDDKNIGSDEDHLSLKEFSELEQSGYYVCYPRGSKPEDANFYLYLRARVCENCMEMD

ratio of amounts bound (Z=Y/X)	Binder
0.24	GLS3000 H27dP (antibody, name in Kabat numbering, V domains shown, one-arm IgG as m2) VH: QVQLVESGGGVVQPGRSLRLSCAASGFTFSNAWMHWVRQAPGKGLEWVAQIKAKSNNYATYYAESVKGRFTISRDDSKNSLYLQMNSLKTEDTAVYYCRYVHYGAYYGVDAWGQGTTVTVSS VL: DIVMTQSPLSLPVTPGEPASISCRSSQSLVPSNRNTYLHWYQQKPGQAPRLLIYKVSNRFSGVPDRFSGSGSGTDFTLKISRVEAEDVGVYYCGQGTQVPYTFGQGTKLEIK
0.39	GLS3000 H27dW (antibody, name in Kabat numbering, V domains shown, one-arm IgG as m2) VH: QVQLVESGGGVVQPGRSLRLSCAASGFTFSNAWMHWVRQAPGKGLEWVAQIKAKSNNYATYYAESVKGRFTISRDDSKNSLYLQMNSLKTEDTAVYYCRYVHYGAYYGVDAWGQGTTVTVSS VL: DIVMTQSPLSLPVTPGEPASISCRSSQSLVWSNRNTYLHWYQQKPGQAPRLLIYKVSNRFSGVPDRFSGSGSGTDFTLKISRVEAEDVGVYYCGQGTQVPYTFGQGTKLEIK
0.64	GLS3000 H27dY (antibody, name in Kabat numbering, V domains shown, one-arm IgG as m2) VH: QVQLVESGGGVVQPGRSLRLSCAASGFTFSNAWMHWVRQAPGKGLEWVAQIKAKSNNYATYYAESVKGRFTISRDDSKNSLYLQMNSLKTEDTAVYYCRYVHYGAYYGVDAWGQGTTVTVSS VL: DIVMTQSPLSLPVTPGEPASISCRSSQSLVYSNRNTYLHWYQQKPGQAPRLLIYKVSNRFSGVPDRFSGSGSGTDFTLKISRVEAEDVGVYYCGQGTQVPYTFGQGTKLEIK
0.3	GLS3000 H27dV (antibody, name in Kabat numbering, V domains shown, one-arm IgG as m2) VH: QVQLVESGGGVVQPGRSLRLSCAASGFTFSNAWMHWVRQAPGKGLEWVAQIKAKSNNYATYYAESVKGRFTISRDDSKNSLYLQMNSLKTEDTAVYYCRYVHYGAYYGVDAWGQGTTVTVSS VL: DIVMTQSPLSLPVTPGEPASISCRSSQSLVVSNRNTYLHWYQQKPGQAPRLLIYKVSNRFSGVPDRFSGSGSGTDFTLKISRVEAEDVGVYYCGQGTQVPYTFGQGTKLEIK
0.32	GLS3000 H27dS (antibody, name in Kabat numbering, V domains shown, one-arm IgG as m2) VH: QVQLVESGGGVVQPGRSLRLSCAASGFTFSNAWMHWVRQAPGKGLEWVAQIKAKSNNYATYYAESVKGRFTISRDDSKNSLYLQMNSLKTEDTAVYYCRYVHYGAYYGVDAWGQGTTVTVSS VL: DIVMTQSPLSLPVTPGEPASISCRSSQSLVSSNRNTYLHWYQQKPGQAPRLLIYKVSNRFSGVPDRFSGSGSGTDFTLKISRVEAEDVGVYYCGQGTQVPYTFGQGTKLEIK
0.59	GLS3000 H34L (antibody, name in Kabat numbering, V domains shown, one-arm IgG as m2) VH: QVQLVESGGGVVQPGRSLRLSCAASGFTFSNAWMHWVRQAPGKGLEWVAQIKAKSNNYATYYAESVKGRFTISRDDSKNSLYLQMNSLKTEDTAVYYCRYVHYGAYYGVDAWGQGTTVTVSS VL: DIVMTQSPLSLPVTPGEPASISCRSSQSLVHSNRNTYLLWYQQKPGQAPRLLIYKVSNRFSGVPDRFSGSGSGTDFTLKISRVEAEDVGVYYCGQGTQVPYTFGQGTKLEIK
0.34	GLS3000 H34P (antibody, name in Kabat numbering, V domains shown, one-arm IgG as m2) VH: QVQLVESGGGVVQPGRSLRLSCAASGFTFSNAWMHWVRQAPGKGLEWVAQIKAKSNNYATYYAESVKGRFTISRDDSKNSLYLQMNSLKTEDTAVYYCRYVHYGAYYGVDAWGQGTTVTVSS VL: DIVMTQSPLSLPVTPGEPASISCRSSQSLVHSNRNTYLPWYQQKPGQAPRLLIYKVSNRFSGVPDRFSGSGSGTDFTLKISRVEAEDVGVYYCGQGTQVPYTFGQGTKLEIK
0.65	GLS3000 H34N (antibody, name in Kabat numbering, V domains shown, one-arm IgG as m2) VH: QVQLVESGGGVVQPGRSLRLSCAASGFTFSNAWMHWVRQAPGKGLEWVAQIKAKSNNYATYYAESVKGRFTISRDDSKNSLYLQMNSLKTEDTAVYYCRYVHYGAYYGVDAWGQGTTVTVSS VL: DIVMTQSPLSLPVTPGEPASISCRSSQSLVHSNRNTYLNWYQQKPGQAPRLLIYKVSNRFSGVPDRFSGSGSGTDFTLKISRVEAEDVGVYYCGQGTQVPYTFGQGTKLEIK
0.35	GLS3000 H34M (antibody, name in Kabat numbering, V domains shown, one-arm IgG as m2) VH: QVQLVESGGGVVQPGRSLRLSCAASGFTFSNAWMHWVRQAPGKGLEWVAQIKAKSNNYATYYAESVKGRFTISRDDSKNSLYLQMNSLKTEDTAVYYCRYVHYGAYYGVDAWGQGTTVTVSS VL: DIVMTQSPLSLPVTPGEPASISCRSSQSLVHSNRNTYLMWYQQKPGQAPRLLIYKVSNRFSGVPDRFSGSGSGTDFTLKISRVEAEDVGVYYCGQGTQVPYTFGQGTKLEIK
1.02	GLS3000 H34G (antibody, name in Kabat numbering, V domains shown, one-arm IgG as m2) VH: QVQLVESGGGVVQPGRSLRLSCAASGFTFSNAWMHWVRQAPGKGLEWVAQIKAKSNNYATYYAESVKGRFTISRDDSKNSLYLQMNSLKTEDTAVYYCRYVHYGAYYGVDAWGQGTTVTVSS VL: DIVMTQSPLSLPVTPGEPASISCRSSQSLVHSNRNTYLGWYQQKPGQAPRLLIYKVSNRFSGVPDRFSGSGSGTDFTLKISRVEAEDVGVYYCGQGTQVPYTFGQGTKLEIK
0.25	GLS3000 H27dQ (antibody, name in Kabat numbering, V domains shown, one-arm IgG as m2) VH: QVQLVESGGGVVQPGRSLRLSCAASGFTFSNAWMHWVRQAPGKGLEWVAQIKAKSNNYATYYAESVKGRFTISRDDSKNSLYLQMNSLKTEDTAVYYCRYVHYGAYYGVDAWGQGTTVTVSS VL: DIVMTQSPLSLPVTPGEPASISCRSSQSLVQSNRNTYLHWYQQKPGQAPRLLIYKVSNRFSGVPDRFSGSGSGTDFTLKISRVEAEDVGVYYCGQGTQVPYTFGQGTKLEIK
0.25	GLS3000 H34Q (antibody, name in Kabat numbering, V domains shown, one-arm IgG as m2) VH: QVQLVESGGGVVQPGRSLRLSCAASGFTFSNAWMHWVRQAPGKGLEWVAQIKAKSNNYATYYAESVKGRFTISRDDSKNSLYLQMNSLKTEDTAVYYCRYVHYGAYYGVDAWGQGTTVTVSS VL: DIVMTQSPLSLPVTPGEPASISCRSSQSLVHSNRNTYLQWYQQKPGQAPRLLIYKVSNRFSGVPDRFSGSGSGTDFTLKISRVEAEDVGVYYCGQGTQVPYTFGQGTKLEIK
0.23	GLS3000 H34E (antibody, name in Kabat numbering, V domains shown, one-arm IgG as m2) VH: QVQLVESGGGVVQPGRSLRLSCAASGFTFSNAWMHWVRQAPGKGLEWVAQIKAKSNNYATYYAESVKGRFTISRDDSKNSLYLQMNSLKTEDTAVYYCRYVHYGAYYGVDAWGQGTTVTVSS VL: DIVMTQSPLSLPVTPGEPASISCRSSQSLVHSNRNTYLEWYQQKPGQAPRLLIYKVSNRFSGVPDRFSGSGSGTDFTLKISRVEAEDVGVYYCGQGTQVPYTFGQGTKLEIK
1.06	GLS3000 H34A (antibody, name in Kabat numbering, V domains shown, one-arm IgG as m2) VH: QVQLVESGGGVVQPGRSLRLSCAASGFTFSNAWMHWVRQAPGKGLEWVAQIKAKSNNYATYYAESVKGRFTISRDDSKNSLYLQMNSLKTEDTAVYYCRYVHYGAYYGVDAWGQGTTVTVSS VL: DIVMTQSPLSLPVTPGEPASISCRSSQSLVHSNRNTYLAWYQQKPGQAPRLLIYKVSNRFSGVPDRFSGSGSGTDFTLKISRVEAEDVGVYYCGQGTQVPYTFGQGTKLEIK
0.22	GLS3000 H34D (antibody, name in Kabat numbering, V domains shown, one-arm IgG as m2) VH: QVQLVESGGGVVQPGRSLRLSCAASGFTFSNAWMHWVRQAPGKGLEWVAQIKAKSNNYATYYAESVKGRFTISRDDSKNSLYLQMNSLKTEDTAVYYCRYVHYGAYYGVDAWGQGTTVTVSS VL: DIVMTQSPLSLPVTPGEPASISCRSSQSLVHSNRNTYLDWYQQKPGQAPRLLIYKVSNRFSGVPDRFSGSGSGTDFTLKISRVEAEDVGVYYCGQGTQVPYTFGQGTKLEIK
0.31	GLS3000 H27dR (antibody, name in Kabat numbering, V domains shown, one-arm IgG as m2) VH: QVQLVESGGGVVQPGRSLRLSCAASGFTFSNAWMHWVRQAPGKGLEWVAQIKAKSNNYATYYAESVKGRFTISRDDSKNSLYLQMNSLKTEDTAVYYCRYVHYGAYYGVDAWGQGTTVTVSS VL: DIVMTQSPLSLPVTPGEPASISCRSSQSLVRSNRNTYLHWYQQKPGQAPRLLIYKVSNRFSGVPDRFSGSGSGTDFTLKISRVEAEDVGVYYCGQGTQVPYTFGQGTKLEIK
0.65	GLS3000 H34I (antibody, name in Kabat numbering, V domains shown, one-arm IgG as m2) VH: QVQLVESGGGVVQPGRSLRLSCAASGFTFSNAWMHWVRQAPGKGLEWVAQIKAKSNNYATYYAESVKGRFTISRDDSKNSLYLQMNSLKTEDTAVYYCRYVHYGAYYGVDAWGQGTTVTVSS VL: DIVMTQSPLSLPVTPGEPASISCRSSQSLVHSNRNTYLIWYQQKPGQAPRLLIYKVSNRFSGVPDRFSGSGSGTDFTLKISRVEAEDVGVYYCGQGTQVPYTFGQGTKLEIK
0.27	GLS3000 H34F (antibody, name in Kabat numbering, V domains shown, one-arm IgG as m2) VH: QVQLVESGGGVVQPGRSLRLSCAASGFTFSNAWMHWVRQAPGKGLEWVAQIKAKSNNYATYYAESVKGRFTISRDDSKNSLYLQMNSLKTEDTAVYYCRYVHYGAYYGVDAWGQGTTVTVSS VL: DIVMTQSPLSLPVTPGEPASISCRSSQSLVHSNRNTYLFWYQQKPGQAPRLLIYKVSNRFSGVPDRFSGSGSGTDFTLKISRVEAEDVGVYYCGQGTQVPYTFGQGTKLEIK
2.17	GLS3000 H34K (antibody, name in Kabat numbering, V domains shown, one-arm IgG as m2) VH: QVQLVESGGGVVQPGRSLRLSCAASGFTFSNAWMHWVRQAPGKGLEWVAQIKAKSNNYATYYAESVKGRFTISRDDSKNSLYLQMNSLKTEDTAVYYCRYVHYGAYYGVDAWGQGTTVTVSS VL: DIVMTQSPLSLPVTPGEPASISCRSSQSLVHSNRNTYLKWYQQKPGQAPRLLIYKVSNRFSGVPDRFSGSGSGTDFTLKISRVEAEDVGVYYCGQGTQVPYTFGQGTKLEIK
0.29	GLS3000 H27dT (antibody, name in Kabat numbering, V domains shown, one-arm IgG as m2) VH: QVQLVESGGGVVQPGRSLRLSCAASGFTFSNAWMHWVRQAPGKGLEWVAQIKAKSNNYATYYAESVKGRFTISRDDSKNSLYLQMNSLKTEDTAVYYCRYVHYGAYYGVDAWGQGTTVTVSS VL: DIVMTQSPLSLPVTPGEPASISCRSSQSLVTSNRNTYLHWYQQKPGQAPRLLIYKVSNRFSGVPDRFSGSGSGTDFTLKISRVEAEDVGVYYCGQGTQVPYTFGQGTKLEIK
0.2	GLS3000 H34R (antibody, name in Kabat numbering, V domains shown, one-arm IgG as m2) VH: QVQLVESGGGVVQPGRSLRLSCAASGFTFSNAWMHWVRQAPGKGLEWVAQIKAKSNNYATYYAESVKGRFTISRDDSKNSLYLQMNSLKTEDTAVYYCRYVHYGAYYGVDAWGQGTTVTVSS VL: DIVMTQSPLSLPVTPGEPASISCRSSQSLVHSNRNTYLRWYQQKPGQAPRLLIYKVSNRFSGVPDRFSGSGSGTDFTLKISRVEAEDVGVYYCGQGTQVPYTFGQGTKLEIK
